Laboratory results reported in patent publication US20130018176A1, “METHODS OF PRODUCING HYBRIDOMAS AND MONOCLONAL ANTIBODIES AND ANTIBODIES PRODUCED THEREBY” (AMGEN INC., priority 2007, published 2013).

Experiments:
[1] = biological target: T1, Ferroportin expressed inducibly in 293 cells (Homo sapiens, UniProt Q9NP59); experiment: In vitro hepcidin activity ferritin assay; assay type: cell-based; conditions: 293 cells with tetracycline-inducible ferroportin; 1 μg/ml hepcidin; 17-20 hours
T1 construct: expressed in transfected cells; host or cells: 293 cells, tetracycline/doxycycline-inducible
T1 sequence (Q9NP59 1-571): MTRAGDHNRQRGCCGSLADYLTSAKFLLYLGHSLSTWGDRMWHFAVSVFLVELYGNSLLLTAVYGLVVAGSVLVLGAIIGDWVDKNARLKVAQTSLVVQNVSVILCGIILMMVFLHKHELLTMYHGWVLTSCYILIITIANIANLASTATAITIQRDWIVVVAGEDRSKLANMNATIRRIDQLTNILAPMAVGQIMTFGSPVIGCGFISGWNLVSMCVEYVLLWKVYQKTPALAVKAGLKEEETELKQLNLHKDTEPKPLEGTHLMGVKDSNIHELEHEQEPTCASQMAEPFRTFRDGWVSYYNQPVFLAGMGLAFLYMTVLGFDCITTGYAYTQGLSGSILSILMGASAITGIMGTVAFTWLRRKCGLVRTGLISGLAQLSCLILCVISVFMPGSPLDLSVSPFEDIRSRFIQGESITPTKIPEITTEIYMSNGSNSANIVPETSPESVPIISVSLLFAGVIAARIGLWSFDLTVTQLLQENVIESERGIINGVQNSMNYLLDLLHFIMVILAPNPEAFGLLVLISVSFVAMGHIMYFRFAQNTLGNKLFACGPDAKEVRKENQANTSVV
Protocol: Human hepcidin purified or produced according to Examples 1, 2, 3 and 4 was assayed for iron-regulating bioactivity in an in vitro cellular assay. […] The action of ferroportin can be reduced in a dose-dependent manner by hepcidin treatment.
293 cells expressing a tetracycline-inducible ferroportin gene were plated at 50,000 cells per well (70-80% density) in a 96 well BioCoat poly-D Lysine-coated plate in DMEM supplemented with 5% fetal bovine serum and a penicillin/streptomycin/glutamine supplement (Gibco BRL). After an overnight incubation at 37° C. with 5% CO2, the medium was replaced with assay medium (as above, but supplemented with 2.5 μg/ml doxycycline for […], 2.5 μg/ml iron citrate for iron supplemented wells and 1 μg/ml hepcidin for hepcidin treatment wells). The plate was further incubated for 17-20 hours as above before washing the wells in cold PBS and lysing in 120 ul of 1% Triton lysis buffer on ice for 15 minutes. 100 μl of lysates were used for ferritin analysis (Olympus AU400 clinical chemistry analyzer) and 10 μl for BCA protein assay (Pierce). Ferritin results were normalized for protein content.

human hepcidin = biological target: T2, human hepcidin (Homo sapiens, UniProt P81172); experiment: Neutralization of injected human hepcidin in mice (hypoferremic response); assay type: in vivo; conditions: 25 μg i.p. with isotype control antibody; female C57BL/6 mice; two hours
T2 construct: The pro-region of the protein was enzymatically cleaved by incubation with Kex protease; made in house; host or cells: E. coli
T2 sequence (P81172 60-84 limits assumed): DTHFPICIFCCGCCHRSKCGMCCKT
Protocol: Activity of anti-human hepcidin antibodies was evaluated in vivo in mice that were administered human hepcidin in an amount sufficient to generate a hypoferremic response. On day 0, female C57BL/6 mice were injected subcutaneously with a murine monoclonal antibody (Ab2.7) directed against human hepcidin. Control mice received murine IgG1 as an isotypic control. At day 3, the mice received a single intraperitoneal injection of 25 μg E. coli-derived recombinant human Hepcidin (rhHepc). Serum iron levels were analyzed two hours later. […] Statistics represent ANOVA with a Dunnett's post-hoc test comparing all groups against the saline control.

[2] = biological target: T3, E. coli-derived human hepcidin (Homo sapiens, UniProt P81172); experiment: Biacore concurrent binding to hepcidin captured on antibody 1S1 surface (sandwich pairing); conditions: 20 nM hepcidin on 1S1 surface, then 50 nM antibody
T3 construct: The pro-region of the protein was enzymatically cleaved by incubation with Kex protease; made in house; host or cells: E. coli
T3 sequence (P81172 60-84 limits assumed): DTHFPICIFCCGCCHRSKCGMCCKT
Protocol: Using Biacore analysis, a surface coated with antibody 1S1 was tested for the concurrent binding of hepcidin and another antibody (FIG. 28). Immobilization of anti-Hepc antibody 1S1 to the sensor chip surface was performed according to manufacturer's instructions using a continuous flow of 0.005% P-20/PBS buffer. Briefly, carboxyl groups on the sensor chip surfaces were activated by injecting 60 μL of a mixture containing 0.2 M N-ethyl-N′-(dimethylaminopropyl)carbodiimide (EDC) and 0.05 M N-hydroxysuccinimide (NHS). This was followed by injecting 1S1 diluted in 10 mM acetate, pH 4.0 at concentrations between 20 μg/mL. Excess reactive groups on the surfaces were deactivated by injecting 60 μL of 1 M ethanolamine. Final immobilized levels were 5,000-6,000 resonance units (RU) for the Ab 1S1 surface. A blank, mock-coupled reference surface was also prepared on the sensor chip. 20 nM E. coli-derived human hepcidin was injected over and bound to the 1S1 antibody surface. Then 50 nM antibody 2.7, 23F11, 26F11, and 1S1 were injected over the hepcidin/1S1 surface. After the antibody injection, the surfaces were regenerated by injecting 30 μL 10 mM HCl pH 2.0.

hydrogen-DTHFPICIFCCGCCHRSKCGMCCKT-free acid [synthetic hepcidin]
iron retention (ferritin) [1]: increase in iron retention

recombinant hepcidin: human hepcidin produced recombinantly according to Examples 2 and 3 (CHO- or E. coli-derived)
iron retention (ferritin) [1]: increase in iron retention

rhHepc: E. coli-derived recombinant human Hepcidin
serum iron levels after hepcidin injection (human hepcidin): hypoferremia

urinary hepcidin: Human hepcidin isolated from urine of sepsis patients
iron retention (ferritin) [1]: increase in iron retention

B1: Antibody 26F11: human antibody from Xenomouse, SEQ ID NOs: 187-196 (antibody)
heavy: QVQLVESGGGVVQPGRSLRLSCAASGFTFSNYGMHWVRQAPGKGLEWVAVIWYVGSNKYYADSVKGRFTISRDNSKNTLYLQMNSLRAEDTAVYYCARAQEGMAPDAFDIWGQGTMVTVSSASTKGPSVFPLAPCSRSTSESTAALGCLVKDYFPEPVTVSWNSGALTSGVHTFPAVLQSSGLYSLSSVVTVPSSNFGTQTYTCNVDHKPSNTKVDKTVERKCCVECPPCPAPPVAGPSVFLFPPKPKDTLMISRTPEVTCVVVDVSHEDPEVQFNWYVDGVEVHNAKTKPREEQFNSTFRVVSVLTVVHQDWLNGKEYKCKVSNKGLPAPIEKTISKTKGQPREPQVYTLPPSREEMTKNQVSLTCLVKGFYPSDIAVEWESNGQPENNYKTTPPMLDSDGSFFLYSKLTVDKSRWQQGNVFSCSVMHEALHNHYTQKSLSLSPGK
light: SYELTQPPSVSVSPGQTASITCSGDKMGERYACWYQQKPGQSPILVIYQDTKRPSGIPERFSGSNSGNTATLTISGTQAMDEADYYCQAWYSSTNVVFGGGTKLTVLGQPKAAPSVTLFPPSSEELQANKATLVCLISDFYPGAVTVAWKADSSPVKAGVETTTPSKQSNNKYAASSYLSLTPEQWKSHRSYSCQVTHEGSTVEKTVAPTECS
ability to bind hepcidin concurrently with 1S1 (sandwich pair) [2]: markedly lower ability to bind to hepcidin concurrently with 1S1
